# Source: the supplement of paper PMC10567573
# B1: PTPN9 (parent)
# chain: NKWTVQYNVSPLSWNVAVKFLMAR
# B2: GLT8D2 (parent)
# chain: QEAKLLHWNGRHKPWDFPSVHNDL
# Variants of: B1
# Test: protein stability index of a GFP-peptide fusion (GPS, HEK-293T) (PSI 1-6); higher = more stable
# Conditions: c terminus: a fixed tail appended
# 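Also: lentivirally expressed fusions sorted by FACS into six bins by GFP to DsRed ratio, PSI derived from sequencing read proportions per bin multiplied by bin number.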
row,Variant,protein stability index
1,R24W,3.09
2,R24L,1.53
3,R24Q,2.94
4,R24C,2.63
5,R24T,2.27
6,R24F,1.41
7,R24M,2.65
8,R24Y,2.66
9,R24P,1.23
10,R24S,1.83
11,R24V,2.97
12,R24A,3.97
13,W3E,1.91
14,W3H,1.02
15,W3T,1.46
16,W3F,2.59
17,W3Q,2.35
18,W3P,1.7
19,W3V,2.08
20,W3R,1.97
21,V18S,2.94
22,V18R,2.08
23,V18L,2.72
24,V18H,1.78

row,Variant,protein stability index
1,V18T,2.76
2,V18K,2.72
3,V18Y,2.04
4,V18G,1.8
5,V18P,1.28
6,V18D,2.03
7,V18A,2.48
8,V18E,1.49
9,V18W,1.77
10,V18F,2.44
11,V18N,2.21
12,V5D,1.76
13,V5T,3.23
14,V5K,3.16
15,V5P,1.94
16,V5A,2.04
17,V5N,1.95
18,V5S,1.99
19,V5C,1.83
20,V5Y,1.67
21,V5Q,1.92
22,Y7A,3.49
23,Y7F,3.3
24,Y7H,1.68

row,Variant,protein stability index
1,Y7K,2.94
2,Y7D,1.91
3,Y7S,2.84
4,Y7R,1.14
5,Y7E,2.17
6,Y7T,1.81
7,Y7Q,1.75
8,Y7N,2.14
9,A23R,2.58
10,A23S,2.48
11,A23C,1.95
12,A23I,2.44
13,A23Y,2.98
14,A23N,2.54
15,A23H,3.31
16,A23L,4.22
17,A23D,2.21
18,A23Q,2.55
19,P11W,4.3
20,P11S,4.04
21,P11E,2.43
22,T4D,2.22
23,T4L,1.71
24,T4Y,3.46

row,Variant,protein stability index
1,T4A,2.55
2,L12I,2.07
3,L12H,2.66
4,L12S,1.88
5,L12P,1.52
6,L12A,4.28
7,L12C,2.9
8,L12Q,1.72
9,L21D,2.03
10,L21V,3.01
11,L21G,1.73
12,L21I,3.32
13,L21M,2.35
14,L21N,1.72
15,L21T,2.9
16,L21K,2.5
17,L21Y,2.89
18,L21E,1.9
19,L21A,3.37
20,L21S,3.66
21,L21H,2.98
22,L21P,1.26
23,K2W,2.89
24,K2E,3.64

row,Variant,protein stability index
1,K2N,1.83
2,K2F,1.49
3,K2C,3.56
4,K2I,3.27
5,K2T,3.13
6,K2Y,2.49
7,K2Q,2.27
8,N15I,3.96
9,N15A,3.46
10,N15M,2.53
11,N15E,3.45
12,N15K,4.23
13,N15Y,1.9
14,N15F,2.02
15,Q6R,4.19
16,Q6T,2.6
17,Q6P,2.54
18,Q6S,2.46
19,Q6D,2.28
20,Q6E,3.28
21,Q6V,2.79
22,Q6M,2.02
23,Q6G,1.7
24,Q6C,2.98

row,Variant,protein stability index
1,Q6K,3.19
2,V16F,3.88
3,V16H,2.69
4,V16Y,2.6
5,V16A,2.35
6,V16L,2.38
7,V16Q,1.52
8,V16S,1.87
9,V16E,2.65
10,V16M,3.58
11,N1W,3.28
12,N1H,2.3
13,M22F,3.6
14,M22Y,3.05
15,M22K,2.73
16,M22E,1.73
17,M22P,2.29
18,M22N,2.06
19,M22H,2.36
20,M22G,1.83
21,K19N,1.63
22,K19L,3.29
23,K19D,3.33
24,K19A,1.74

row,Variant,protein stability index
1,K19C,2.41
2,K19E,3.72
3,K19M,2.06
4,K19P,1.28
5,K19F,1.89
6,F20I,2.27
7,F20N,2.25
8,F20W,3.8
9,F20S,2.3
10,F20D,1.97
11,F20A,3.35
12,F20Y,2.94
13,F20T,2.1
14,F20Q,2.38
15,S13P,2.31
16,S13N,3.31
17,S13I,1.99
18,S13C,3.09
19,S13G,2.81
20,S13M,3.55
21,S13D,2.74
22,S13W,2.65
23,S13V,2.88
24,S13Q,2.02

row,Variant,protein stability index
1,S13K,2.74
2,N8A,1.49
3,N8P,1.68
4,N8R,2.26
5,N8C,3.2
6,N8T,2.15
7,N8H,2.26
8,N8L,2.45
9,S10T,3.21
10,S10A,2.26
11,S10N,2.35
12,S10W,2.48
13,S10H,2.23
14,S10M,2.81
15,S10C,3.37
16,W14R,2.4
17,W14Q,2.62
18,W14G,2.35
19,W14K,2.24
20,W14C,2.29
21,W14P,2.08
22,W14E,1.28
23,W14Y,2.01
24,W14A,2.09

row,Variant,protein stability index
1,W14D,1.62
2,W14M,2.75
3,W14I,3.02
4,W14T,1.93
5,A17D,1.78
6,A17K,2.28
7,A17P,2.37
8,A17I,3.65
9,A17Q,3.33
10,A17R,1.47
11,A17M,2.92
12,V9P,1.6
13,V9S,2
14,V9W,2.98
15,V9C,3.09
16,V9G,3.82
17,V9E,1.46
18,V9T,2.65
19,V9R,1.55
20,V9I,4.2

# Variants of: B2
# Test: as above
# Conditions: c terminus: a fixed tail appended
row,Variant,protein stability index
1,L24C,3.01
2,L24E,4.01
3,L24D,3.75
4,L24P,2.85
5,L24F,2.14
6,L24G,3.07
7,L24V,2.42
8,L24S,3.51
9,L24R,2.74
10,L24M,2.98
11,L24K,2.87
12,L24T,3.41
13,L24H,2.65
14,L24Y,2.98
15,L24W,2.06
16,L24N,3.25
17,L24A,3.33
18,L24I,2.44
19,L24Q,3.5
20,N22H,2.47
21,N22Q,2.79
22,N22S,2.33
23,N22E,3.2
24,N22I,2.06
25,N22G,2.63

row,Variant,protein stability index
1,N22A,2.9
2,N22W,2.08
3,N22P,2.57
4,N22C,2.11
5,N22K,2.7
6,N22R,2.35
7,N22L,2.53
8,N22M,2.01
9,N22Y,1.91
10,N22T,2.5
11,N22V,1.92
12,N22D,3.27
13,N22F,2.08
14,D23K,3.01
15,D23E,2.72
16,D23M,1.92
17,D23P,2.27
18,D23L,1.48
19,D23S,2.17
20,D23A,1.96
21,D23N,1.86
22,D23C,2.43
23,D23F,2.6
24,D23I,2.27
25,D23R,1.88

row,Variant,protein stability index
1,D23T,2.55
2,D23Q,2.4
3,D23V,2.81
4,D23G,2.23
5,D23W,2.48
6,D23H,2.38
7,D23Y,1.98
8,P18N,2.72
9,P18R,2.41
10,P18V,2.82
11,P18S,2.59
12,P18T,2.32
13,P18W,1.8
14,P18Y,2.24
15,P18Q,2.83
16,H21E,3.46
17,H21S,3.21
18,H21I,2.77
19,H21F,2.75
20,H21Q,2.94
21,H21K,2.75
22,H21A,2.9
23,H21N,2.96
24,H21T,3
25,H21G,3.09

row,Variant,protein stability index
1,H21M,3.05
2,H21W,2.18
3,H21R,3
4,H21V,2.67
5,H21Y,2.44
6,H21C,2.48
7,H21P,2.41
8,H21D,3.39
9,H21L,2.39
10,S19E,3.92
11,S19F,2.31
12,S19I,2.5
13,S19V,2.56
14,S19D,3.43
15,S19A,3.21
16,S19K,2.6
17,S19Q,2.95
18,S19T,2.33
19,S19G,2.51
20,S19P,2.7
21,S19M,2.79
22,S19L,1.96
23,S19W,1.61
24,S19N,2.84
25,S19Y,2.12

row,Variant,protein stability index
1,S19H,2.58
2,S19C,2.38
3,S19R,2.38
4,V20W,2.38
5,V20N,3.23
6,V20M,2.43
7,V20R,2.94
8,V20K,2.56
9,V20I,2.78
10,V20P,2.81
11,V20T,2.52
12,V20A,2.97
13,V20S,3
14,V20H,2.77
15,V20Y,2.06
16,V20C,2.54
17,V20E,3.63
18,V20F,2.53
19,V20G,2.84
20,V20Q,3.17
21,V20L,2.41
22,V20D,3.53
